T1: RIG-I (ΔCARDs) (human, UniProt O95786 229-925)
T1 sequence: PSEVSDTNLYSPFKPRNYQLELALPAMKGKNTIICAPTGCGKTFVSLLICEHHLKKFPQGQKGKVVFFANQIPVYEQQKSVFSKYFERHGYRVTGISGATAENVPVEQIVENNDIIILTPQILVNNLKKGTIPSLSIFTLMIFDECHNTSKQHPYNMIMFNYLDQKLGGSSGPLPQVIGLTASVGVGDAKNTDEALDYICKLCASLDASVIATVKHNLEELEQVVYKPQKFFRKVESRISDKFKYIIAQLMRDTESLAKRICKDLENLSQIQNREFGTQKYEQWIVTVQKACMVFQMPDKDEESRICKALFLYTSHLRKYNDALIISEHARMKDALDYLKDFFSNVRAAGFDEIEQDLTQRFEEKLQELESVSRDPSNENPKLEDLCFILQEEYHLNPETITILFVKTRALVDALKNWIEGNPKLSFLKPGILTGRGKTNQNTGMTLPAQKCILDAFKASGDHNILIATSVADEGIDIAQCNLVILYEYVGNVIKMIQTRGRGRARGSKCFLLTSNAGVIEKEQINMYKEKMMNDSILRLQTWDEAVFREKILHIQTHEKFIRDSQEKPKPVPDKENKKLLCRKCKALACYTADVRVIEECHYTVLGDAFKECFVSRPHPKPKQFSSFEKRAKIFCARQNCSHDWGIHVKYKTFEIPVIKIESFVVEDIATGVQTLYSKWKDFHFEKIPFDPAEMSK

T2: CTD (human, UniProt O95786 792-925)
T2 sequence: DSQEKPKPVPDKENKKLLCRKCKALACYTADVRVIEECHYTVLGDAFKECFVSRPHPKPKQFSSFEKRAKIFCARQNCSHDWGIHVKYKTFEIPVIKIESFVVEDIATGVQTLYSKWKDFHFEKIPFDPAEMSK

T3: full-length RIG-I (human, UniProt O95786 1-925)
T3 sequence: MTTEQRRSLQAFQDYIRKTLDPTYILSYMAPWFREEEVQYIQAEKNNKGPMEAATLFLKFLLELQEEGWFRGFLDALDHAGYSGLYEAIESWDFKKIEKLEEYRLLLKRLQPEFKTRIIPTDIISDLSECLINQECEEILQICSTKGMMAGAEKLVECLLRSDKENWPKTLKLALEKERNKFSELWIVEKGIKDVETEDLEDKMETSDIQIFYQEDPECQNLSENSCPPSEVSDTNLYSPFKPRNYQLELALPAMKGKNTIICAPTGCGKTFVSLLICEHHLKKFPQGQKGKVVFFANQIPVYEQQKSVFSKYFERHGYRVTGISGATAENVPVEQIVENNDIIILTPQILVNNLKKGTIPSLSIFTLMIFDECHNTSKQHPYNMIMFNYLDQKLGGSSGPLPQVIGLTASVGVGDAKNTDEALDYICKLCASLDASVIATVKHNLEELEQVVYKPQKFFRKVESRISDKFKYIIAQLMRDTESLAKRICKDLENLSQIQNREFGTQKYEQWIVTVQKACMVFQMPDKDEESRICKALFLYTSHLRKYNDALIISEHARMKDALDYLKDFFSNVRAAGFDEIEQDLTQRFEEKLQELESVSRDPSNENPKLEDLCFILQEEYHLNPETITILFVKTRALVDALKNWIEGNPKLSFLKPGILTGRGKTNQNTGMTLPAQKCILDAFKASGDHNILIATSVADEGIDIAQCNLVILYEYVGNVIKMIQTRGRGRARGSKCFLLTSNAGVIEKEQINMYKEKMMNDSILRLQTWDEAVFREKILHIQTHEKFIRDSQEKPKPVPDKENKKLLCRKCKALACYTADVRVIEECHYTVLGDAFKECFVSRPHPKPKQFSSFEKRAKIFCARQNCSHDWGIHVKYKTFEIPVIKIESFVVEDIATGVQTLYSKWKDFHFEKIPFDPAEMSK

T4: HD (helicase domain) (human, UniProt O95786 229-793)
T4 sequence: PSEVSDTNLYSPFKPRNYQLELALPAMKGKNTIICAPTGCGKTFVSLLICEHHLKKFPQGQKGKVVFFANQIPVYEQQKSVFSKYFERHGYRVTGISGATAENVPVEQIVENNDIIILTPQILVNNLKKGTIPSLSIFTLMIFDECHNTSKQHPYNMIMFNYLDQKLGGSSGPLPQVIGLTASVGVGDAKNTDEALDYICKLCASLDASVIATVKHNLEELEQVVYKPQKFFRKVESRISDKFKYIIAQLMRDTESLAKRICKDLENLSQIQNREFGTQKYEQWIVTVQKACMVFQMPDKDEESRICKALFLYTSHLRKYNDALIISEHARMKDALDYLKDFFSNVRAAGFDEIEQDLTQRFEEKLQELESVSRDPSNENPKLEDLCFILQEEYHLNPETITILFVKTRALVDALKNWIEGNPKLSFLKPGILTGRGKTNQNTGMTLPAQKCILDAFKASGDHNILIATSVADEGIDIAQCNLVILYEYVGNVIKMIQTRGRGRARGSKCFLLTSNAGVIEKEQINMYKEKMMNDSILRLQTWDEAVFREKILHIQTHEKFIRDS

B1: 5'-OH 14 dsRNA (dsRNA)
RNA 1: ACCUCCCACCCCCG
RNA 2: CGGGGGUGGGAGGU
modifications: 5'-OH on top strand
B2: 5'-ppp 14 dsRNA (dsRNA)
RNA 1: ACCUCCCACCCCCG
RNA 2: CGGGGGUGGGAGGU
modifications: 5'-triphosphate on top strand
B3: 5'-OH 14 dsRNA, unlabeled competitor (dsRNA)
RNA 1: ACCUCCCACCCCCG
RNA 2: CGGGGGUGGGAGGU
modifications: 5'-OH

Assays:
[1] = molecular target: T1, RIG-I (ΔCARDs); assay: EMSA
[2] = molecular target: T2, CTD; assay: EMSA
[3] = molecular target: T3, full-length RIG-I; assay: EMSA
[4] = molecular target: T4, HD (helicase domain); assay: EMSA
[5] = molecular target: T1, RIG-I (ΔCARDs); assay: competition

Binder | Kd [1] [nM] | Kd [2] [nM] | Kd [3] [nM] | Kd [4] [nM] | Ki [5] [nM]
B1 | 3.6 ± 0.9 | 5900 ± 750 | 20 ± 3 | – | –
B2 | 0.041 ± 0.002 | 0.5 ± 0.06 | 0.159 ± 0.02 | 760 ± 20 | –
B3 | – | – | – | – | 13

From publication PMC3522258
